Experiment [1] addresses T1, mNotch1ECD-Fc (mouse, UniProt Q01705 19-1725).
T1 construct: extracellular domain; Immobilized on the SPR chip; also called mouse full length notch extracellular domain; not shown: Fc part
The experiment in a line: SPR (open SPR), mNotch1ECD-Fc immobilized, Tan 6 injected at 2.2, 0.45, 0.22, 0.11 and 0 µM; apparent KD. The protocol:
(§1) FIG. 25. Open surface plasmon resonance (SPR) binding experiments of DLL1 Tandem 6× against immobilized mouse full length notch extracellular domain (Top) and BSA negative control (bottom). DLL1 Tandem 6× was injected at concentrations of 2.2 μM, 0.45 μM, 0.22 μM, 0.11 μM, and 0 μM (HBS buffer only). Signal to noise of these binding experiments were 3 to 1.
(§2) The signal:noise of binding to Notch1 versus BSA is about 3:1 at the same concentrations.

Experiment [2] addresses T1, mNotch1ECD-Fc. Kind of experiment: SPR, signal on immobilized mNotch1ECD-Fc against immobilized BSA negative control at the same Tan 6 concentrations. The protocol: as §1, §2
On the technique in general: Surface plasmon resonance follows binding to a sensor surface in real time, without labels.

T1 sequence (Q01705 19-1725): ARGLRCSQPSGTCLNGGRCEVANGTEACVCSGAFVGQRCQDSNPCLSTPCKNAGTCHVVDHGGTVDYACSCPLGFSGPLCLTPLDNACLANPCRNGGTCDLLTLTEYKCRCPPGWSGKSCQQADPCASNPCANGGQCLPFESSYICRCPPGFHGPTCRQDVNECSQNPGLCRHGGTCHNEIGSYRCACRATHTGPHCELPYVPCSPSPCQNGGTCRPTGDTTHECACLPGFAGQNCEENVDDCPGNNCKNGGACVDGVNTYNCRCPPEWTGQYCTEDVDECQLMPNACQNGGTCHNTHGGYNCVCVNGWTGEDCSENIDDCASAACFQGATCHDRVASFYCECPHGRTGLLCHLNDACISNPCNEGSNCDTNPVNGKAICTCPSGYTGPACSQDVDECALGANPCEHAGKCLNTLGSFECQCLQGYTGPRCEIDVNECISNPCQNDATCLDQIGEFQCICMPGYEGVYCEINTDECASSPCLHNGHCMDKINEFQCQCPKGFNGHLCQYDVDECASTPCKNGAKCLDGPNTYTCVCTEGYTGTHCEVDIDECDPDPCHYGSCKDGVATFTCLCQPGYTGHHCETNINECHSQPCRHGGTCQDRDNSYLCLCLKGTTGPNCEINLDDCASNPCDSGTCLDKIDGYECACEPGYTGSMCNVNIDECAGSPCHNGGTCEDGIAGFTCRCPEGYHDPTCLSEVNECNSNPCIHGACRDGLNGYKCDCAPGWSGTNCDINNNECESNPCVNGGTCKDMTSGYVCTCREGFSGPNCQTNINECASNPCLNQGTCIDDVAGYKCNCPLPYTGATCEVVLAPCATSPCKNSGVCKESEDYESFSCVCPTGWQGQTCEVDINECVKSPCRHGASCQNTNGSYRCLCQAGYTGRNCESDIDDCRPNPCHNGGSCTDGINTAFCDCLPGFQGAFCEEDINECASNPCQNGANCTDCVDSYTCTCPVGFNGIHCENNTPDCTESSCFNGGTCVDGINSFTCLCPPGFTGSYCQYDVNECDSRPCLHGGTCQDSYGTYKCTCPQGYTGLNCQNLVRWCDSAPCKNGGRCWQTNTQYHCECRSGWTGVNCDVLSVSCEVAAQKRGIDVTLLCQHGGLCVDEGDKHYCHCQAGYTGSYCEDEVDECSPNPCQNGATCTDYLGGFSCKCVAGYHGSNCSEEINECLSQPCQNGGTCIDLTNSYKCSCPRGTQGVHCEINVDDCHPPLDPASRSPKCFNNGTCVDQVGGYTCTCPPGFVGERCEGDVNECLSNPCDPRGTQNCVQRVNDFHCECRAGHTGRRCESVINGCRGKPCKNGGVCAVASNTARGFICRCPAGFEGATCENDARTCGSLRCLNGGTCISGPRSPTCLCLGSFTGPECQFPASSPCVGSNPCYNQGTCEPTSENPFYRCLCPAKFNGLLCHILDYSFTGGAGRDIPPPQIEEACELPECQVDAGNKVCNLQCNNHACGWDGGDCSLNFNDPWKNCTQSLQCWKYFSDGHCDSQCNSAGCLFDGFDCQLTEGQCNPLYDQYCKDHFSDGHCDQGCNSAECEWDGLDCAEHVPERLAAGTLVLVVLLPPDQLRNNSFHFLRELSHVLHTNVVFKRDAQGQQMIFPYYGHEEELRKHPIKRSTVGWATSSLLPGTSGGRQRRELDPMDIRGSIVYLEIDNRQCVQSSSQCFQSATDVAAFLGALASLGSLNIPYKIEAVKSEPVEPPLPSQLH

B1: MuDLL1.DSL-EGF12.Tan 6 (NL 99) (ligand)
chain: MAAHHHHHHGGENLYFQGFVCDEHYYGEGCSVFCRPRDDAFGHFTCGDRGEKMCDPGWKGQYCTDPICLPGCDDQHGYCDKPGECKCRVGWQGRYCDECIRYPGCLHGTCQQPWQCNCQEGWGGLFCNQGSSGSSGFVCDEHYYGEGCSVFCRPRDDAFGHFTCGDRGEKMCDPGWKGQYCTDPICLPGCDDQHGYCDKPGECKCRVGWQGRYCDECIRYPGCLHGTCQQPWQCNCQEGWGGLFCNQGSSGSSGFVCDEHYYGEGCSVFCRPRDDAFGHFTCGDRGEKMCDPGWKGQYCTDPICLPGCDDQHGYCDKPGECKCRVGWQGRYCDECIRYPGCLHGTCQQPWQCNCQEGWGGLFCNQGSSGSSGFVCDEHYYGEGCSVFCRPRDDAFGHFTCGDRGEKMCDPGWKGQYCTDPICLPGCDDQHGYCDKPGECKCRVGWQGRYCDECIRYPGCLHGTCQQPWQCNCQEGWGGLFCNQGSSGSSGFVCDEHYYGEGCSVFCRPRDDAFGHFTCGDRGEKMCDPGWKGQYCTDPICLPGCDDQHGYCDKPGECKCRVGWQGRYCDECIRYPGCLHGTCQQPWQCNCQEGWGGLFCNQGSSGSSGFVCDEHYYGEGCSVFCRPRDDAFGHFTCGDRGEKMCDPGWKGQYCTDPICLPGCDDQHGYCDKPGECKCRVGWQGRYCDECIRYPGCLHGTCQQPWQCNCQEGWGGLFCNQ
notes: also called DLL1 Tandem 6×; hexamer
B1: in experiment [1], the Kd is 1500 nM. Also, the “signal:noise of binding to Notch1 versus BSA” value in experiment [2] is ~3 ratio (Notch1 : BSA).

Source of the values: patent US20240018213A1 (OHIO STATE INNOVATION FOUNDATION, published 2024).
